Experimental data published in PMC6548132, “Engineered SUMO/protease system identifies Pdr6 as a bidirectional nuclear transport receptor” (The Journal of Cell Biology, 2019).

Target: T1, recombinant Pdr6 (S. cerevisiae, UniProt P32767 1-1081)
T1 construct: Pdr6/Kap122, S. cerevisiae; also called Kap122; source: E. coli NEB express, purified (Ni2+ chelate beads)
T1 sequence (looked up): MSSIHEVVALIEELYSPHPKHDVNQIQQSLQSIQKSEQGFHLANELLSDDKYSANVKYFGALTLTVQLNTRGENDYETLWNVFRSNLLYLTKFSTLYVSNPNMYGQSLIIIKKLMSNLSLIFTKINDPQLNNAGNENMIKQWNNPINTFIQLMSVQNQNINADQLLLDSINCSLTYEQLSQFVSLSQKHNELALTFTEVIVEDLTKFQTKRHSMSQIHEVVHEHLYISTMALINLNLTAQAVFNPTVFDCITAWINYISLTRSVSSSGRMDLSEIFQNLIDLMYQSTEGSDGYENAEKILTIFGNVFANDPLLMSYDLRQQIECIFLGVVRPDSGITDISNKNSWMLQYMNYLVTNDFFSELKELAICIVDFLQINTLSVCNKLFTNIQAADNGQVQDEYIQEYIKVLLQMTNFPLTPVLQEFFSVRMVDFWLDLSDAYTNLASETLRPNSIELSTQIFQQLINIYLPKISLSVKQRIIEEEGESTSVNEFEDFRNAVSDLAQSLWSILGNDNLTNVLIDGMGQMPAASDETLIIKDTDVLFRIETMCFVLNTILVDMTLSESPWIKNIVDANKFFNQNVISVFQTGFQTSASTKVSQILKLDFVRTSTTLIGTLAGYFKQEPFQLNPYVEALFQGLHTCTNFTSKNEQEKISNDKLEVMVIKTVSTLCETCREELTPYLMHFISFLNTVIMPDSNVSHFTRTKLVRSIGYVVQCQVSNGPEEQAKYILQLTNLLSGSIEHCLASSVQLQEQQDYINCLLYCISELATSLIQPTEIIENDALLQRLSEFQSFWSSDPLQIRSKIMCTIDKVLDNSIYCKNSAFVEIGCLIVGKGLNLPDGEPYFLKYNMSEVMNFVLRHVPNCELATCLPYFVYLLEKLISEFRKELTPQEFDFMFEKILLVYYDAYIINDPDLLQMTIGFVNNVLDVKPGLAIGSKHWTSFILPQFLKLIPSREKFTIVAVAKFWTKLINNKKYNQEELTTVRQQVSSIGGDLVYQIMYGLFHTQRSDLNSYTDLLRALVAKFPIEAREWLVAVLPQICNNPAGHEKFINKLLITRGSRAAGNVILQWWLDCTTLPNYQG
Test: pull-down; 1.5 µM H14-ZZ-NEDD8-Ubc9 as bait, 3 µM recombinant Pdr6, with or without 3 µM RanGTP and 3 µM eIF5A; anti-ZZ/ED affibody matrix, elution by NEDP1 tag cleavage; 1 h at 4°, 45 mM Tris/HCl pH 7.5, 100 mM NaCl, 2 mM MgCl2, 5 mM DTT; SDS-PAGE/Coomassie
Conditions: both partners purified

binding result: binds
B1: H14-ZZ-NEDD8–tagged Ubc9 (enzyme, yeast (S. cerevisiae), UniProt P50623 1-157, looked up)
chain: MSSLCLQRLQEERKKWRKDHPFGFYAKPVKKADGSMDLQKWEAGIPGKEGTNWAGGVYPITVEYPNEYPSKPPKVKFPAGFYHPNVYPSGTICLSILNEDQDWRPAITLKQIVLGVQDLLDSPNPNSPAQEPAWRSFSRNKAEYDKKVLLQAKQYSK
notes: Ubc9, SUMO-conjugating E2 enzyme of yeast; Tag is cut by NEDP1 only at elution; also called immobilized Ubc9; source: E. coli NEB express, purified (Ni2+ chelate beads)
